Source: patent publication US20100226985A1, “VISCOELASTIC AQUEOUS GELS COMPRISING MICROSPHERES” (priority 2006, published 2010)

Assay: Lysozyme release from viscoelastic gels into release buffer (BCA protein assay)
Assay type: physicochemical
Conditions: after approximately one month; gel solid content 15 wt.-%, DS 4 and 8, lysozyme 1 wt.-% in buffer; release buffer Hepes pH 7
Protocol: Viscoelastic gel compositions with a solid content of 15 wt.-% comprising lysozyme as a model active compound were prepared by dispersing equal amounts of dex-HEMA-L-lactate and dex-HEMA-D-lactate microspheres (DS 4 and 8) in lysozyme-containing (1 wt.-%) aqueus buffer solution. The microparticles were allowed to hydrate overnight at 4° C. Viscoelastic gels were formed which were then tested for lysozyme release using the method described by Van Tomme et al. JCR 2005; 110:67-78. In short, samples of 500 mg of the gels were transferred in a release device and 3 mL release buffer (Hepes, pH 7, 100 mM, 150 mM NaCl, 0.02% NaN3). At certain time intervals, samples were taken and analysed for their protein content using a BCA® protein assay. After approximately one month, about 80% of the entrapped lysozyme was released. No significant difference could be detected between the two batches (i.e. with DS 4 and DS 8) were observed.

**Q.** With lysozyme as the substance, how does the entrapped lysozyme released read?
**A.** Its entrapped lysozyme released is “about 80%”.
